Key:
[1] = biological target: T1, human EpCAM, full length, on cells (human, UniProt P16422 24-314); assay: flow cytometry on HPAF-II cells, PE anti-human IgG F(ab')2
T1 construct: also called hEpCAM; EpCAM on DiFi, HPAF-II, A549, OV-90-SC12 and MDA-MB-231_hCLDN6_hEpCAM cells
T1 sequence: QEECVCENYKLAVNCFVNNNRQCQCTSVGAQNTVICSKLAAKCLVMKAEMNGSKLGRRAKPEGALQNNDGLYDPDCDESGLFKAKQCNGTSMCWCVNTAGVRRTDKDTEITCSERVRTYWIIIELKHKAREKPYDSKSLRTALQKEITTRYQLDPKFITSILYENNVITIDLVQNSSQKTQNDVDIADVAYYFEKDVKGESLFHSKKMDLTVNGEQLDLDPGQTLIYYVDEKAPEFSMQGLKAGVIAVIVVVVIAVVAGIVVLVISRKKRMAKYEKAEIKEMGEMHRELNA
Procedure: (§1) Binding to the EpCAM-expressing human tumor cell lines DiFi, HPAF-II and A549 by bivalent EpCAM antibodies or bispecific antibodies carrying one EpCAM-binding arm was analyzed by flow cytometry. […] Next, cells were washed once (A-D) or twice (E) in FACS buffer, re-suspended in 100 μL FACS buffer and analyzed on a BD LSRFortessa FACS (BD Biosciences, USA), Celesta (BD Biosciences, USA) or iQue (Sartorius, Germany). Binding curves were analyzed using non-linear regression (sigmoidal dose-response with variable slope) using GraphPad Prism V7.02 software (GraphPad Software, San Diego, CA, USA).

[2] = biological target: T1, human EpCAM, full length, on cells; assay: flow cytometry on A549 cells, PE anti-human IgG F(ab')2
Procedure: as §1

[3] = biological target: T1, human EpCAM, full length, on cells; assay: flow cytometry on DiFi cells, PE anti-human IgG F(ab')2
Procedure: as §1

[4] = biological target: T1, human EpCAM, full length, on cells; assay: flow cytometry on CHO-S cells transiently transfected with full length human EpCAM, PE anti-human IgG F(ab')2
Procedure: (§2) Binding of EpCAM antibodies to CHO-S cells transiently transfected with full length human, cynomolgus monkey or mouse EpCAM was analyzed by flow cytometry. […] Cells were washed twice in FACS buffer, re-suspended in 20 μL FACS buffer supplemented with TO-PRO™-3 Iodide (diluted 1:20000; Invitrogen, cat. no. T3605) and analyzed on an iQue screener (Intellicyt Corporation, USA). Binding curves were analyzed by non-linear regression (sigmoidal dose-response with variable slope) using GraphPad Prism V8.4.1 software (GraphPad Software, San Diego, CA, USA).

[5] = biological target: T2, mouse EpCAM, full length, on transfected CHO-S cells (mouse, UniProt Q99JW5 24-315); assay: flow cytometry on CHO-S cells transiently transfected with full length mouse EpCAM, PE anti-human IgG F(ab')2
T2 sequence: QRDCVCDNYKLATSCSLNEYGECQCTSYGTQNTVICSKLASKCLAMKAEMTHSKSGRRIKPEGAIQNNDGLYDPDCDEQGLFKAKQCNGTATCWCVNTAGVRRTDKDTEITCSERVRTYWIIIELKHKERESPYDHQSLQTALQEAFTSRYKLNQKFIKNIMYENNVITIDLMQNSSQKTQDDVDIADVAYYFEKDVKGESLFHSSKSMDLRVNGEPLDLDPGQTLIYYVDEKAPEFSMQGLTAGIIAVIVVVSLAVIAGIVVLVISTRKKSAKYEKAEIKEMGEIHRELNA
Procedure: as §2

[6] = biological target: T1, human EpCAM, full length, on cells; assay: flow cytometry on DiFi cells, PE anti-human IgG F(ab')2; remark: listed apart in the source
Procedure: as §1

[7] = biological target: T1, human EpCAM, full length, on cells; assay: flow cytometry on HPAF-II cells, PE anti-human IgG F(ab')2; remark: listed apart in the source
Procedure: as §1

[8] = biological target: T1, human EpCAM, full length, on cells; assay: flow cytometry on DiFi cells, PE anti-human IgG F(ab')2; remark: listed apart in the source
Procedure: as §1

[9] = biological target: T1, human EpCAM, full length, on cells; assay: flow cytometry on HPAF-II cells, PE anti-human IgG F(ab')2; remark: listed apart in the source
Procedure: as §1

B1: IgG1-EpCAM-A37-FEAR (antibody)
heavy: not shown
light: EIELTQSPGTLSLSPGERATLSCRASQTISNNYLAWYQQKRGQAPRLLIYAASSRATGIPDRFSGTGSGTDFTLTISRLEPEDFAVYYCAQGELYPRQFGGGTKLEIKRTVAAPSVFIFPPSDEQLKSGTASVVCLLNNFYPREAKVQWKVDNALQSGNSQESVTEQDSKDSTYSLSSTLTLSKADYEKHKVYACEVTHQGLSSPVTKSFNRGEC
[1]
  EC50 (read off the curve): ~0.1 µg/mL
[2]
  EC50 (read off the curve): ~0.2 µg/mL
[3]
  EC50 (read off the curve): ~0.5 µg/mL
[4]
  EC50 (read off the curve): ~0.03 µg/mL
[5]
  EC50 (read off the curve): ~0.01 µg/mL

B2: IgG1-EpCAM-UBS-54-FEAR (antibody, V domains shown)
VH: QVQLVQSGAEVKKPGSSVRVSCKASGGTFSSYAISWVRQAPGQGLEWMGGIIPIFGTANYAQKFQGRVTITADESTSTAYMELSSLRSEDTAVYYCARDPFLHYWGQGTLVTVSS
VL: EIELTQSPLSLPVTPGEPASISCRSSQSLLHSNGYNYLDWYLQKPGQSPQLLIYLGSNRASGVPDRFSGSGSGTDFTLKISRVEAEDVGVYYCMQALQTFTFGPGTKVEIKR
[6]
  EC50 (read off the curve): ~0.4 µg/mL
[4]
  EC50 (read off the curve): ~0.04 µg/mL
[7]
  EC50 (read off the curve): ~0.2 µg/mL

B3: IgG1-EpCAM-323-A3-FEAR (antibody)
heavy: QIQLVQSGPELKKPGETVKISCKASGYTFTNYGMNWVRQASGEGLKWMGWINTYTGEPTYGEDFKGRFAFSLETSASTAYLQINNLKNEDTATYFCARFGNYVDYWGQGTTLTVSSASTKGPSVFPLAPSSKSTSGGTAALGCLVKDYFPEPVTVSWNSGALTSGVHTFPAVLQSSGLYSLSSVVTVPSSSLGTQTYICNVNHKPSNTKVDKRVEPKSCDKTHTCPPCPAPEFEGGPSVFLFPPKPKDTLMISRTPEVTCVVVAVSHEDPEVKFNWYVDGVEVHNAKTKPREEQYNSTYRVVSVLTVLHQDWLNGKEYKCKVSNKALPAPIEKTISKAKGQPREPQVYTLPPSREEMTKNQVSLTCLVKGFYPSDIAVEWESNGQPENNYKTTPPVLDSDGSFFLYSRLTVDKSRWQQGNVFSCSVMHEALHNHYTQKSLSLSPG
light: DIVMTQAAFSNPVTLGTSASISCRSSKNLLHSNGITYLYWYLQKPGQSPHLLIYQMSNLASGVPDRFSSSGSGTDFTLRISRVEAEDVGVYYCAQNLEIPRTFGGGTKLEIKRTVAAPSVFIFPPSDEQLKSGTASVVCLLNNFYPREAKVQWKVDNALQSGNSQESVTEQDSKDSTYSLSSTLTLSKADYEKHKVYACEVTHQGLSSPVTKSFNRGEC
notes: also called IgG1-323-A3-FEAR
[8]
  EC50 (read off the curve): ~0.08 µg/mL
[9]
  EC50 (read off the curve): ~0.02 µg/mL

— patent US20260184809A1 (Genmab, published 2026)
